Experimental data as given in patent US20220073935A1.

Target: E2F1-SB, DP1 (E2F1 fragment with C-terminal Small BiT, co-expressed with Dp-1) (human) (UniProt Q01094)
Experiment: NanoBiT split-luciferase complementation, cells stably expressing E2F1-SB and Dp-1; relative to WT LB-Rb

Sequence of E2F1-SB, DP1 (E2F1 fragment with C-terminal Small BiT, co-expressed with Dp-1) (human) (Q01094 whole entry, chain 1 of 2, the tested form may be a part): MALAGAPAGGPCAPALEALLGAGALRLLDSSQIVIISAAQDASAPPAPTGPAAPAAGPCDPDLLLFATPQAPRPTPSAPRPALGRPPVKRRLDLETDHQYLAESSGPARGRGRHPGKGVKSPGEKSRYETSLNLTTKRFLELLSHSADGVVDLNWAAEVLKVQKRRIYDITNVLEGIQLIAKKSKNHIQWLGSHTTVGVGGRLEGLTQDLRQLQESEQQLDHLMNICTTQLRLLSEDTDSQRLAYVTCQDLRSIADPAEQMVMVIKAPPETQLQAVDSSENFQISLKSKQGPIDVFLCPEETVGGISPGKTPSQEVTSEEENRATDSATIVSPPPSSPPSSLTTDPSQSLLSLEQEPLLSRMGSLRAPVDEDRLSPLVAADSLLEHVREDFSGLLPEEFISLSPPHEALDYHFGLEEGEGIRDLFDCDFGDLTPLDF
Sequence of E2F1-SB, DP1 (E2F1 fragment with C-terminal Small BiT, co-expressed with Dp-1) (human) (Q14186 whole entry, chain 2 of 2, further chain, the tested form may be a part): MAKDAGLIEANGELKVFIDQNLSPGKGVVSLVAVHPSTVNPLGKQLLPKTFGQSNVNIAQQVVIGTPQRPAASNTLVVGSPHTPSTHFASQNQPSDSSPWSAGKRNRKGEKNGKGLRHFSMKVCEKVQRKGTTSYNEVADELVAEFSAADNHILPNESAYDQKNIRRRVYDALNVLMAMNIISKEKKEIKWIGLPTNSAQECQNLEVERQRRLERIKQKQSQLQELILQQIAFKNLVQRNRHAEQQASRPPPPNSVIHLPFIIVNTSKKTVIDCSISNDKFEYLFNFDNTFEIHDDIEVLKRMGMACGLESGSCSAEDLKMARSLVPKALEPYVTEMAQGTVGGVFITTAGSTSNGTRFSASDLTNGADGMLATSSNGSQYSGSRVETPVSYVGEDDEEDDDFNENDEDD

% (/wt) luciferase activity: 5.2 % (/wt)
B1: LB-Rb (379-928) R661W (protein, part only; not given: Large BiT luciferase tag, human, UniProt P06400 379-928, looked up, part only)
chain, part: MNTIQQLMMILNSASDQPSENLISYFNNCTVNPKESILKRVKDIGYIFKEKFAKAVGQGCVEIGSQRYKLGVRLYYRVMESMLKSEEERLSIQNFSKLLNDNIFHMSLLACALEVVMATYSRSTSQNLDSGTDLSFPWILNVLNLKAFDFYKVIESFIKAEGNLTREMIKHLERCEHRIMESLAWLSDSPLFDLIKQSKDREGPTDHLESACPLNLPLQNNHTAADMYLSPVRSPKKKGSTTRVNSTANAETQATSAFQTQKPLKSTSLSLFYKKVYRLAYLWLNTLCERLLSEHPELEHIIWTLFQHTLQNEYELMRDRHLDQIMMCSMYGICKVKNIDLKFKIIVTAYKDLPHAVQETFKRVLIKEEEYDSIIVFYNSVFMQRLKTNILQYASTRPPTLSPIPHIPRSPYKFPSSPLRIPGGNIYISPLKSPYKISEGLPTPTKMTPRSRILVSIGESFGTSEKFQKINQMVCNSDRVLKRSAEGSNPPKPLKKLRFDIEGSDEADGSKHLPGESKFQQKLAEMTSTRTRMQKQKMNDSMDTSNKEEK
